Measured values published in publication PMC9308760 (Molecular cell, 2022).

What was measured:
negative-stain EM = biological target: the molecule itself; assay: negative-stain EM
cryo-EM structure = biological target: the molecule itself; assay: cryo-EM structure
TnsB wild type = biological target: T1, TnsB wild type (Escherichia coli (Tn7), UniProt P13989 1-702); assay: EMSA
T1 sequence: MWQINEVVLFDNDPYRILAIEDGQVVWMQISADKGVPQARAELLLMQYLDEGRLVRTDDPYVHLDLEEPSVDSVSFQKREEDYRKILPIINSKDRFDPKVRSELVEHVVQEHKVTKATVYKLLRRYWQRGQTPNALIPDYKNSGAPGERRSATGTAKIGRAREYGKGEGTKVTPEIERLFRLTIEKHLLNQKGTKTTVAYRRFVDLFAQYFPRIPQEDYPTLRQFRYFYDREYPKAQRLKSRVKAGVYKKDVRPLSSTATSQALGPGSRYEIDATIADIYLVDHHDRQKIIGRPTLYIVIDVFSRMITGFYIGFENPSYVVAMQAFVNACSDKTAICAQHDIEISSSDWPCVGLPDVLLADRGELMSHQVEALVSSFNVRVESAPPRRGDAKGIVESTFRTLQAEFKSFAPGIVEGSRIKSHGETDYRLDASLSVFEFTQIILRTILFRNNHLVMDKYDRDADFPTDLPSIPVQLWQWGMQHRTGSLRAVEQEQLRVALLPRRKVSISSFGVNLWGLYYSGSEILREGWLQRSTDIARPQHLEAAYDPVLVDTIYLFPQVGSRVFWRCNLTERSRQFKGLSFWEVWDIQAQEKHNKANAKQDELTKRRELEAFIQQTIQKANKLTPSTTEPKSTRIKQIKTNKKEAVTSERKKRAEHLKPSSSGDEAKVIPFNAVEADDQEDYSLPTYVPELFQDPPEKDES

TnsB Δ245-251 = biological target: T2, TnsB Δ245-251 (Escherichia coli (Tn7), UniProt P13989 1-702, del245-251); assay: EMSA
T2 sequence: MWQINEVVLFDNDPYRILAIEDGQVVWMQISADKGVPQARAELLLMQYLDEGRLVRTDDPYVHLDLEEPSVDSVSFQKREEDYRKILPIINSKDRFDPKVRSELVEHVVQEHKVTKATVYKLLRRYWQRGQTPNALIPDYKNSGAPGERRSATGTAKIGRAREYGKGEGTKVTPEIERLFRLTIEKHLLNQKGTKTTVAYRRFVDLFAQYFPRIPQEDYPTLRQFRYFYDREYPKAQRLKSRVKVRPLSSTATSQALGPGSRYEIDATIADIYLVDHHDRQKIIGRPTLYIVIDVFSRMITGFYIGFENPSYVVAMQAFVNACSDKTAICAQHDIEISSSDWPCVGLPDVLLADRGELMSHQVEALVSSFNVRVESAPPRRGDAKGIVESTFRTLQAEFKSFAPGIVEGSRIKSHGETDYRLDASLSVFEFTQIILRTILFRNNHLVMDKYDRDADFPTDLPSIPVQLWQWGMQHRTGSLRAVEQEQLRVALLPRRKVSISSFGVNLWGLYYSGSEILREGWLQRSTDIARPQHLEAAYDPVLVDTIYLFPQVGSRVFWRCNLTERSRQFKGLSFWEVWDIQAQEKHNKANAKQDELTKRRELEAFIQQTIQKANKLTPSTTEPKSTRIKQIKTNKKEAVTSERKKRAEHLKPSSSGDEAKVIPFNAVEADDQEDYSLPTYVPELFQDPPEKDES

B1: TnsB variant with a shorter DBD2-CD linker (Δ245–251) (enzyme, E. coli)
chain: MWQINEVVLFDNDPYRILAIEDGQVVWMQISADKGVPQARAELLLMQYLDEGRLVRTDDPYVHLDLEEPSVDSVSFQKREEDYRKILPIINSKDRFDPKVRSELVEHVVQEHKVTKATVYKLLRRYWQRGQTPNALIPDYKNSGAPGERRSATGTAKIGRAREYGKGEGTKVTPEIERLFRLTIEKHLLNQKGTKTTVAYRRFVDLFAQYFPRIPQEDYPTLRQFRYFYDREYPKAQRLKSRVKVRPLSSTATSQALGPGSRYEIDATIADIYLVDHHDRQKIIGRPTLYIVIDVFSRMITGFYIGFENPSYVVAMQAFVNACSDKTAICAQHDIEISSSDWPCVGLPDVLLADRGELMSHQVEALVSSFNVRVESAPPRRGDAKGIVESTFRTLQAEFKSFAPGIVEGSRIKSHGETDYRLDASLSVFEFTQIILRTILFRNNHLVMDKYDRDADFPTDLPSIPVQLWQWGMQHRTGSLRAVEQEQLRVALLPRRKVSISSFGVNLWGLYYSGSEILREGWLQRSTDIARPQHLEAAYDPVLVDTIYLFPQVGSRVFWRCNLTERSRQFKGLSFWEVWDIQAQEKHNKANAKQDELTKRRELEAFIQQTIQKANKLTPSTTEPKSTRIKQIKTNKKEAVTSERKKRAEHLKPSSSGDEAKVIPFNAVEADDQEDYSLPTYVPELFQDPPEKDES
binding result (negative-stain EM): binds

B2: Tn7 transposase TnsB (E. coli), wild type (enzyme, UniProt P13989 1-702, looked up)
chain: MWQINEVVLFDNDPYRILAIEDGQVVWMQISADKGVPQARAELLLMQYLDEGRLVRTDDPYVHLDLEEPSVDSVSFQKREEDYRKILPIINSKDRFDPKVRSELVEHVVQEHKVTKATVYKLLRRYWQRGQTPNALIPDYKNSGAPGERRSATGTAKIGRAREYGKGEGTKVTPEIERLFRLTIEKHLLNQKGTKTTVAYRRFVDLFAQYFPRIPQEDYPTLRQFRYFYDREYPKAQRLKSRVKAGVYKKDVRPLSSTATSQALGPGSRYEIDATIADIYLVDHHDRQKIIGRPTLYIVIDVFSRMITGFYIGFENPSYVVAMQAFVNACSDKTAICAQHDIEISSSDWPCVGLPDVLLADRGELMSHQVEALVSSFNVRVESAPPRRGDAKGIVESTFRTLQAEFKSFAPGIVEGSRIKSHGETDYRLDASLSVFEFTQIILRTILFRNNHLVMDKYDRDADFPTDLPSIPVQLWQWGMQHRTGSLRAVEQEQLRVALLPRRKVSISSFGVNLWGLYYSGSEILREGWLQRSTDIARPQHLEAAYDPVLVDTIYLFPQVGSRVFWRCNLTERSRQFKGLSFWEVWDIQAQEKHNKANAKQDELTKRRELEAFIQQTIQKANKLTPSTTEPKSTRIKQIKTNKKEAVTSERKKRAEHLKPSSSGDEAKVIPFNAVEADDQEDYSLPTYVPELFQDPPEKDES
binding result (cryo-EM structure): binds

B3: 2BSL (dsDNA)
DNA 1: CCCAGTTCCCATCTATTTTGTCACTCTTCCCTAAATAATCCTTAAAAACTCCATTTCCACCCCTCCCAGTTCCCAACTATTTTGTCCGCCCACA
DNA 2: TGTGGGCGGACAAAATAGTTGGGAACTGGGAGGGGTGGAAATGGAGTTTTTAAGGATTATTTAGGGAAGAGTGACAAAATAGATGGGAACTGGG
Kd (TnsB wild type): 85 ± 4 nM

B4: 3BS (dsDNA)
DNA 1: CTAGTTTAAGACTTTATTGTCATAGTTTAGATCTATTTTGTTCAGTTTAAGACTTTATTGTCCGCCCACA
DNA 2: TGTGGGCGGACAATAAAGTCTTAAACTGAACAAAATAGATCTAAACTATGACAATAAAGTCTTAAACTAG
binding result (TnsB Δ245-251): binds
